Sequences and labels used below:
B1: CUL2^ZYG11B (residues 490–728) (domain or fragment)
chain: ELFIVRQLLQIVKQKTNQNSVDTTLKFTLSALWNLTDESPTTCRHFIENQGLELFMRVLESFPTESSIQQKVLGLLNNIAEVQELHSELMWKDFIDHISSLLHSVEVEVSYFAAGIIAHLISRGEQAWTLSRSQRNSLLDDLHSAILKWPTPECEMVAYRSFNPFFPLLGCFTTPGVQLWAVWAMQHVCSKNPSRYCSMLIEEGGLQHLYNIKDHEHTDPHVQQIAVAILDSLEKHIVR

The target of assay [1] is B1. Nature of the assay: ITC.
Assay [2] deals with SNX11-degron peptide. Nature of the assay: ITC; pre-formed ZYG11B/ORF10 N5 peptide complex.
Assay [3] addresses SNX11-degron peptide. Nature of the assay: ITC.
In assay [4] the target is B1. Nature of the assay: ITC. The source holds these as a separate data set.

These results are taken from PMC11413682 (2024).

GYINV [SARS-CoV-2 ORF10 N5 peptide] gave a Ka in assay [1] of 340000 M⁻¹.
As for B1, the values for the Kd with SNX11-degron peptide [2] and with SNX11-degron peptide [3] were 5.23 µM and 0.4 µM, respectively.
On to GYI [SARS-CoV-2 ORF10 N3 peptide], for which, in assay [1], the Ka worked out at 69100 M⁻¹.
GYIN [SARS-CoV-2 ORF10 N4 peptide] displayed a Ka in assay [1] of 193000 M⁻¹.
The molecule GY [SARS-CoV-2 ORF10 N2 peptide] displayed a Kd in assay [4] of over 200 µM.
